Assay [1] concerns the target T1, V7-AMG510 HLA-A*03:01 MHC-I complex (human).
T1 construct: also called V7-Sotorasib A*03:01; V7-510 A*03:01
Kind of assay: BLI, Fab on pMHC. A general note: Biolayer interferometry detects binding as a change in optical thickness at a sensor tip.
Description: (§1) Kinetic measurements via Octet. Kinetic constants for Fabs were determined using an Octet RED384 instrument (ForteBio). For screens, a single concentration of Fab (100 nM) was tested, and for kinetic characterization Fabs were tested at several concentrations, as noted in the relevant figure. Biotinylated peptides (1 μM in 1% BSA/PBS) or biotinylated MHC-I complexes (200 nM in 1% BSA/PBS) were immobilized on ForteBio streptavidin SA biosensors for all assays. All measurements were performed in 1% BSA PBS pH 7.4 in 384 well plates. Data were analyzed using a 1:1 interaction model with global fitting on the ForteBio data analysis software (9.0.0.6). KD values were determined by the fitting of either equilibrium or maximum response (nm) as a function of Fab concentration.

The target of assay [2] is T1, V7-AMG510 HLA-A*03:01 MHC-I complex. Put plainly: BLI (Octet), Fab on immobilised biotinylated pMHC.
Description: as §1
For assay [3] the target is unchanged. Kind of assay: competition ELISA: the concentration is that of free AMG510 (small molecule, the varied competitor) preincubated with the Fab; read-out is Fab binding to streptavidin-captured V7-AMG510 HLA-A*03:01, anti-myc IgG-HRP; legend calls the values approximate.
Description: FIG. 3A-3D show characterizations of six V7-AMG510 A*03:01-reactive Fabs. […] Approximate IC₅₀ values for free drug (AMG510) competition for each clone are reported, as derived from FIG. 3C. […] Recombinant V7-AMG510 HLA-A*03:01 was captured via streptavidin in an ELISA and increasing amounts of free AMG510 preincubated with the indicated clones in Fab format before detection of Fab binding with an anti-myc secondary IgG-HRP conjugate. Data are presented as the mean #standard deviation of three replicates. […] Data are presented as the mean±standard deviation of four replicates.
The target is the same in assay [4]. Kind of assay: BLI (Octet), derived from FIG. 3A; biotinylated MHC-I complex on streptavidin biosensor.
Description: as §1
The target in assay [5] is T2, K5-ARS1620 HLA-A*02:01 MHC-I complex (human).
T2 construct: also called K5-ARS HLA-A*02:01
Kind of assay: BLI (Octet), Fab on immobilised biotinylated pMHC.
Description: as §1

The target of assay [6] is T3, V7-ARS1620 HLA-A*03:01 MHC-I complex (human).
T3 construct: also called V7-ARS HLA-A*03:01; V7-ARS A*03:01
Kind of assay: BLI (Octet), Fab on immobilised biotinylated pMHC.
Description: as §1

Assay [7] addresses T3, V7-ARS1620 HLA-A*03:01 MHC-I complex. Put plainly: competition ELISA: the concentration is that of free ARS1620 (small molecule, the varied competitor); read-out is P2B2 IgG-HRP binding to W6/32-captured A*03:01/V7-ARS. (In general: In an ELISA, binding on a coated surface is turned into a signal by an enzyme label.)
Description: The complexes were captured by the conformation-specific antibody W6/32 and detected by the ARS1620-specific antibody (P1A4) in the presence of various amounts of free ARS1620. Data is presented as mean±standard deviation for four replicates.
MHC-I refolding and purification. […] Refolding reactions were performed with various peptides of interest in refolding buffer (100 mM Tris pH 8.0, 400 mM L-Arginine.HCl, 5 mM reduced glutathione, 0.5 mM oxidized glutathione, 2 mM EDTA, and complete protease inhibitor cocktail (Roche)). Briefly, B2m (2 μM) and peptide (10 μM) were diluted into refolding buffer, then denatured heavy chain was added to 1 μM. Reactions proceeded at 10° C. overnight for ELISA assays. MHC-I ELISAs. Black, 384 well Nunc Maxisorp plates were coated with 50 μL of the anti-heavy chain antibody W6/32 (Bio X Cell Cat #BE0079, RRID:AB_1107730) at 5 μg/mL in PBS overnight. The plate was washed twice with PBS (100 μL) and blocked with 3% BSA PBS (120 μL) for 1 hour at room temperature. Plates were then washed three times with 0.05% Tween-20 PBS (PBST) (100 μL). Refolded MHC complexes (crude or FPLC purified) were diluted 10× into 1% BSA PBS and 50 μL added to wells in quadruplicate. Plates were incubated at room temperature with shaking for 1 hour, then washed three times with 1% BSA PBS (100 μL).

B1: P1B7 Fab (Fab, V domains shown)
VH: QVQLQQSGPGLVKPSQTLSLTCAISGDSVSSNSVAWNWIRQSPSRGLEWLGRTYYRSKWYSDYAVSVKSRITINPDTSKNQFSLQLTSMTPEDTAVYYCAREGVTMGPGAFDIWGQGTMVTVSS
VL: QSALTQPPSVSGSPGQSVTISCTGSSSDVGHYNRVSWYQQSPGTAPKLMIYDVSNRPSGAFSRFSGSRSGNTASLTISGLQPEDEADYYCSSHRTGYTVEVFGTGTKVTVLG
In the case of B1, binding in assay [1] was characterised by a dissociation constant (Kd) of 15 nM. This counts as double-digit nanomolar.

B2: P2C1 Fab (Fab, V domains shown)
VH: EVQLVQSGAEVKKPGSSVKVSCKASGGTFSSYAISWVRQAPGQGLEWMGIINPSGGSTSYAQKFQGRVTMTRDTSTSTVYMELSSLRSEDTAVYYCARDLGTIFEANGAFDIWGQGTMVTVSS
VL: QSALTQPASVSGSPGQSITISCTGTSSDVGSYNLVSWYQQHPGKAPKLMIYDVSNRPSGVSNRFSGSKSGNTASLTISGLQAEDEADYYCSSYTSSSTLVFGTGTNVTVLG
B2: binding in assay [2] was characterised by a dissociation constant (Kd) of 230 nM. The “AMG510 IC50” value in assay [3] was around 1500 nM.

B3: P1H4 Fab (Fab, V domains shown)
VH: EVQLVQSGAEVKKPGSSVKVSCKASGGTFSSYAISWVRQAPGQGLEWMGGIIPIFGTANYAQKFQGRVTITADKSTSTAYMELSSLRSEDTAVYYCAFNYYDSSGYSDYWGQGTLVTVSS
VL: ETTLTQSPGTLSLSPGERATLSCRASQSVSSSYLAWYQQKPGQAPRLLIYGASSRATGIPDRFSGSGSGTDFTLTISRLEPGDFAVYYCQQYGTSPITFGQGTRLEIKR
B3: the Kd in assay [4] stood at 59 nM. The “AMG510 IC50” value in assay [3] is around 930 nM.

B4: P1C10 Fab (Fab, V domains shown)
VH: QVQLVQSGGGLVKPGGSLRLSCAASGFTFSSYSMNWVRQAPGKGLEWVSYISSRGRTIYYADSVKGRFTISRDNAKNSLYLQMNSLRAEDTAVYYCVRDVPGVWGFAYWGQGTLVTVSS
VL: QSVVTQPPSVSAAPGQKVTISCSGSSSNIGNHYVSWYQQLPGTAPKLLIYDDGKRPSGIPDRFSGSKSGTSATLGITGLQTGDEADYYCATWDNSLSVVLFGGGTKLTVLG
On to B4, for which the Kd in assay [5] amounted to 320 nM; in assay [6], 59 nM.

B5: P2B6 Fab (Fab, V domains shown)
VH: QLQLQESGPGLVKPSETLSLTCTVSGVSISSRSDHWGWVRQPPGKGLEWIGSISYSGSTYYNPSLKSRVTISVDTSKNQLSLKLTSVTAADTAVYYCARRALAQQLVMDVWGQGTTVTVSS
VL: DVVMTQSPLSLPVTPGEPASISCRSSQSLLRNNGYNYLDWYLQKPGQSPQLLIYLGSNRASGVPDRFSGSGSGRDFTLKISRVEAEDVGIYYCMQGAHWPYTFGQGTNLEISR
Take B5: in assay [4], binding was characterised by a dissociation constant (Kd) of 29 nM. In addition, the “AMG510 IC50” value in assay [3] is around 74 nM.

B6: P1E5 Fab (Fab, V domains shown)
VH: QVQLQESGGGVVQPGRSLRLSCAASGFTFSSYEMNWVRQAPGKGLEWVAVISYDGSNKYYADSVKGRFTISRDNSKNTLYLQMNSLRAEDTAVYYCARDAYSGWFDYWGQGTLVTVSS
VL: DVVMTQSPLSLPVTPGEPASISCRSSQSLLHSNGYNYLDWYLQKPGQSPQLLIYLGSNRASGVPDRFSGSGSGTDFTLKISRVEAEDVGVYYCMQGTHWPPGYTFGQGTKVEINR
The molecule B6 gave a Kd in assay [2] of 13 nM. In addition, in assay [3], the “AMG510 IC50” value was around 200 nM.

B7: P2B2 IgG-HRP conjugate (antibody, V domains shown)
VH: QVQLVESGGGVVQPGRYLRLSCATSGFTFSNYAMHWVRQAPGKGLEWVALISYDGSNKYYADSVKGRFTISRDKSTNALYLQMNSLRVEDTAVYYCARERVPWDYYGMDVWGQGTTVTVSS
VL: QSVVTQPPSVSAAPGHKVSISCSGSNSNIGHNYVSWYQQFPGTAPKLLVYRDDNRPSEVPDRFSGSKSGTSATLGITGLQTADEADYYCGTWDSTLQHVVFGGGTKLTVL
notes: also called V7-ARS-HLA-A*03:01-specific antibody P2B2
With B7, the “IC50 of free ARS1620” value in assay [7] came to 445 nM.

B8: P2B2 Fab (Fab, V domains shown)
VH: B7 VH
VL: QSVVTQPPSVSAAPGHKVSISCSGSNSNIGHNYVSWYQQFPGTAPKLLVYRDDNRPSEVPDRFSGSKSGTSATLGITGLQTADEADYYCGTWDSTLQHVVFGGGTKLTVLS
notes: also called P282
As to B8, the Kd is 470 nM in assay [5] and 43 nM in assay [6].

B9: P2E3 Fab (Fab, V domains shown)
VH: QVQLQESGPGLVKPSETLSLTCTVSGGSVSSSSYYWGWIRQPPGEGLEWIGSIYYSGSTYYNPSLKSRVTISVDTSKNQFSLKLSSVTAADTAVYYCATRLRGSFDYWGQGTLVTVSS
VL: DVVMTQSPLSLPVTPGEAASISCRSSQSLLHSNGYTYLDWYLQKPGQSPRLLIYSGSNRASGVPDRFSGSGSGTDFTLKISRVEAEDVGVYYCMQGTHWPYTFGQGTRLEIKR
B9 yielded a Kd in assay [4] of 68 nM.

A word on the Kd: it is the free concentration of one partner at which half of the binding sites on the other are occupied at equilibrium, for simple one-to-one binding. Higher therefore signals weaker binding.
